Source: patent publication US20150344570A1 (published 2015)

T1: FcγRIIa R (FcγRIIa allotype with Arg at position 131), extracellular domain with C-terminal His tag (human, UniProt P12318 34-217)
T1 chain: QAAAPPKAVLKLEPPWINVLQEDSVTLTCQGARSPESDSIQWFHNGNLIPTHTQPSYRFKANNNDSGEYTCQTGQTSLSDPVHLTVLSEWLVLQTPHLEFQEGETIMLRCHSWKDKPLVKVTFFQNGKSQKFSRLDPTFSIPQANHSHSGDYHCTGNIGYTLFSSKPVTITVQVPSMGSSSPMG

T2: FcγRIIb, extracellular domain with C-terminal His tag (human, UniProt P31994 43-217)
T2 construct: extracellular domain; also called FcgRIIb; 2b; not shown: His tag attached to the C terminus
T2 sequence (looked up): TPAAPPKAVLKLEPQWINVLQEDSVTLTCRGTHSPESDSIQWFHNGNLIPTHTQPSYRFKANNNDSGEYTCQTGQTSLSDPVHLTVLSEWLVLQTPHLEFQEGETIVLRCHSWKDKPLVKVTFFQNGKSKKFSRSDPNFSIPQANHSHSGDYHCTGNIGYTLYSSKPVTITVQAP

T3: FcgRIIa R (human, UniProt P12318 34-217)
T3 construct: extracellular domain; also called FcγRIIa R; FcγRIIa type R
T3 sequence (looked up): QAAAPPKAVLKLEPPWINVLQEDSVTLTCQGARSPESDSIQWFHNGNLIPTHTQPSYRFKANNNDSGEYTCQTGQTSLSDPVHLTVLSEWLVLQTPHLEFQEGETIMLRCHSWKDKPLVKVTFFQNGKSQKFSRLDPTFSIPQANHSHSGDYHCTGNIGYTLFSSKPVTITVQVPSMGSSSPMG

T4: FcgRIIa H (human, UniProt P12318 34-217)
T4 construct: extracellular domain; also called FcγRIIa H; FcγRIIa type H
T4 sequence (looked up): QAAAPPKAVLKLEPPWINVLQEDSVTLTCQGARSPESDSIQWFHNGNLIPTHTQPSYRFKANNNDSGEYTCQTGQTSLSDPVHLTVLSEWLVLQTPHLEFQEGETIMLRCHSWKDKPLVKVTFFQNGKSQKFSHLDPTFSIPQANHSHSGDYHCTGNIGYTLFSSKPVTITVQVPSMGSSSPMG

T5: FcgRIIb (human, UniProt P31994 43-217)
T5 construct: extracellular domain; also called FcγRIIb; CD32B
T5 sequence (looked up): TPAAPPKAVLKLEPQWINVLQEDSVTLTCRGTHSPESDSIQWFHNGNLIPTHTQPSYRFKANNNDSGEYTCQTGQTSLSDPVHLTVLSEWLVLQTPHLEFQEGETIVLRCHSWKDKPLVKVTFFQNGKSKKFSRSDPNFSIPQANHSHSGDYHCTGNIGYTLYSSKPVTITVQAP


Legend:
[1] = molecular target: T1, FcγRIIa R (FcγRIIa allotype with Arg at …); experiment: SPR (Biacore T100), antibody captured on antigen peptide chip, FcγR as analyte; binding amount relative to control heterodimerized antibody
Experimental: (§1) The heterodimerized antibodies He Abs in which one of the H chains was introduced with an alteration were assayed for their binding activities to each activating FcγR and inhibitory FcγR according to the method described in Example 4. […] The activating FcγRs in FIGS. 26, 27, 28, and 29 are FcγRIa, FcγRIIa (R), FcγRIIa (H), and FcγRIIIa, respectively.
(§2) Analysis of interaction between objective antibody and the FcγR was carried out using Biacore T100 (GE Healthcare). HBS-EP+ (GE Healthcare) was used as the running buffer, and the measurement temperature was set to 25° C. Chips produced by immobilizing the antigen peptide by the amine coupling method to a Series S Sencor Chip CM5 (GE Healthcare), or alternatively, chips produced by allowing preliminarily biotinylated antigen peptides to interact with and immobilize onto a Series S Sensor Chip SA (certified) (GE Healthcare) were used. Antibodies of interest were captured onto an antigen peptide-immobilized chip, and allowed to interact to each FcγR diluted with running buffer. To regenerate and repeatedly use the chip, the antibodies captured on the chip were washed off by reacting 10 mM glycine-HCl, pH 1.5.

[2] = molecular target: T2, FcγRIIb, extracellular domain with …; experiment: as above
Experimental: as §1, §2

[3] = molecular target: T1, FcγRIIa R (FcγRIIa allotype with Arg at …); experiment: SPR (Biacore T100); ratio of He/Con for FcγRIIa R to He/Con for FcγRIIb of the same antibody
[4] = molecular target: T6, FcgRIIIa V (human, UniProt P08637 17-208); experiment: SPR (Biacore); KD of GpH7-Kn033/GpH7-Hl033/GpL16-k0 for this FcγR divided by KD of this antibody
T6 construct: extracellular domain; also called FcγRIIIa V; FcγRIIIaV
T6 sequence (P08637 17-208 F176V limits assumed): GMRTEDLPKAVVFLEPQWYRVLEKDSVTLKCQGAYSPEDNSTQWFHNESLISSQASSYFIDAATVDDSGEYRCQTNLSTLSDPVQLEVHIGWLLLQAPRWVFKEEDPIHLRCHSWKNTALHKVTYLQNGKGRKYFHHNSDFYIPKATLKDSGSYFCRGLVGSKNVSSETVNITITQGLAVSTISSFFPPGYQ
Experimental: (§3) These antibodies were assessed for the binding activity to each FcγR according to the method described in Reference Example 2.
as §2

[5] = molecular target: T3, FcgRIIa R; experiment: as above
Experimental: as §3, §2

[6] = molecular target: T7, FcgRIa (human, UniProt P12314 16-292); experiment: as above
T7 construct: extracellular domain; also called FcγRIa; FcγRI
T7 sequence (P12314 16-292): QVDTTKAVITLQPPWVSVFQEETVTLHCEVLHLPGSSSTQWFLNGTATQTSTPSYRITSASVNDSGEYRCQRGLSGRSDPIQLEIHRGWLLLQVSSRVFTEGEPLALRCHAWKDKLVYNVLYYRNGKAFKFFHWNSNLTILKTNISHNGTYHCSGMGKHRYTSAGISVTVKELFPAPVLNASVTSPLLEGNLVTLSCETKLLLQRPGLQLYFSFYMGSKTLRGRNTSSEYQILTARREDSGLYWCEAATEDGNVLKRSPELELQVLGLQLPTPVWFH
Experimental: as §3, §2

[7] = molecular target: T8, FcgRIIIa F (human, UniProt P08637 17-208); experiment: as above
T8 construct: extracellular domain; also called FcγRIIIa F; FcγRIIIaF
T8 sequence (P08637 17-208): as the sequence (P08637 17-208 F176V limits assumed) above, with V160F counted along it
Experimental: as §3, §2

[8] = molecular target: T4, FcgRIIa H; experiment: as above
Experimental: as §3, §2

[9] = molecular target: T5, FcgRIIb; experiment: as above
Experimental: as §3, §2

He/Con_2aR (IIaR binding) [1] | He/Con_2b (IIb binding) [2] | He_2aR/2b (IIaR/IIb) [3] | KD ratio [4] [fold] | KD ratio [5] [fold] | KD ratio [6] [fold] | KD ratio [7] [fold] | KD ratio [8] [fold] | KD ratio [9] [fold] | Binder
43.1 relative binding activity, GpH7-A5/GpH7-B3/GpL16-k0 = 100 | 70.9 relative binding activity, GpH7-A5/GpH7-B3/GpL16-k0 = 100 | 0.61 | – | – | – | – | – | – | GpH7-A5/GpH7-B3 variant I332_11K/GpL16-k0 (heterodimerized antibody He Ab, I332K in one H chain) (antibody, human IgG1, kappa, Anti-glypican-3 human IgG1-type antibody; the alteration is in only one of the two H chains (the GpH7-B3 chain)) heavy 1: not shown heavy 2: not shown light: DIVMTQSPLSLPVTPGEPASISCQASESLVHSNRNTYLHWYLQKPGQSPQLLIYKVSNRFSGVPDRFSGSGSGTDFTLKISRVEAEDVGVYYCSQNTHVPPTFGQGTKVEIERTVAAPSVFIFPPSDEQLKSGTASVVCLLNNFYPREAKVQWKVDNALQSGNSQESVTEQDSKDSTYSLSSTLTLSKADYEKHKVYACEVTHQGLSSPVTKSFNRGEC
– | – | – | 182 | 3 | 24 | 381 | 1.2 | 8.2 | GpH7-Kn032/GpH7-Hl032/GpL16-k0 (antibody, human IgG1, kappa, also called Kn032/Hl032) heavy 1: QVQLVQSGAEVKKPGASVTVSCKASGYTFTDYEMHWIRQPPGEGLEWIGAIDPKTGDTAYSESFQDRVTLTADKSTSTAYMELSSLTSEDTAVYYCTRFYSYTYWGQGTLVTVSSASTKGPSVFPLAPSSKSTSGGTAALGCLVKDYFPEPVTVSWNSGALTSGVHTFPAVLQSSGLYSLSSVVTVPSSSLGTQTYICNVNHKPSNTKVDKKVEPKSCDKTHTCPPCPAPELLGGPDVFLFPPKPKDTLMISRTPEVTCVVVDVSHEDPEVKFNWYVDGVEVHNAKTKPREEQYNSTYRVVSVLTVLHQDWLNGKEYKCKVSNKALPLPEEKTISKAKGQPREPQVCTLPPSRDELTKNQVSLWCLVKGFYPSDIAVEWESNGQPENNYKTTPPVLDSDGSFFLYSKLTVDKSRWQQGNVFSCSVMHEALHNHYTQKSLSLSP heavy 2: QVQLVQSGAEVKKPGASVTVSCKASGYTFTDYEMHWIRQPPGEGLEWIGAIDPKTGDTAYSESFQDRVTLTADKSTSTAYMELSSLTSEDTAVYYCTRFYSYTYWGQGTLVTVSSASTKGPSVFPLAPSSKSTSGGTAALGCLVKDYFPEPVTVSWNSGALTSGVHTFPAVLQSSGLYSLSSVVTVPSSSLGTQTYICNVNHKPSNTKVDKKVEPKSCDKTHTCPPCPAPELLGGPDVFLFPPKPKDTLMISRTPEVTCVVVDVSHEDPEVKFNWYVDGVEVHNAKTKPREEQYNSTYRVVSVLTVLHQDWLNGKEYKCKVSNKALPLPEEKTISKAKGQPREPQVYTLPPSRCELTKNQVSLSCAVKGFYPSDIAVEWESNGQPENNYKTTPPVLDSDGSFFLVSKLTVDKSRWQQGNVFSCSVMHEALHNHYTQKSLSLSP light: DIVMTQSPLSLPVTPGEPASISCQASESLVHSNRNTYLHWYLQKPGQSPQLLIYKVSNRFSGVPDRFSGSGSGTDFTLKISRVEAEDVGVYYCSQNTHVPPTFGQGTKVEIERTVAAPSVFIFPPSDEQLKSGTASVVCLLNNFYPREAKVQWKVDNALQSGNSQESVTEQDSKDSTYSLSSTLTLSKADYEKHKVYACEVTHQGLSSPVTKSFNRGEC
59.4 relative binding activity, GpH7-A5/GpH7-B3/GpL16-k0 = 100 | 80.8 relative binding activity, GpH7-A5/GpH7-B3/GpL16-k0 = 100 | 0.73 | – | – | – | – | – | – | GpH7-A5/GpH7-B3 variant L328_18N/GpL16-k0 (heterodimerized antibody He Ab, L328N in one H chain) (antibody, human IgG1, kappa, Anti-glypican-3 human IgG1-type antibody; the alteration is in only one of the two H chains (the GpH7-B3 chain)) heavy 1: not shown heavy 2: not shown light: DIVMTQSPLSLPVTPGEPASISCQASESLVHSNRNTYLHWYLQKPGQSPQLLIYKVSNRFSGVPDRFSGSGSGTDFTLKISRVEAEDVGVYYCSQNTHVPPTFGQGTKVEIERTVAAPSVFIFPPSDEQLKSGTASVVCLLNNFYPREAKVQWKVDNALQSGNSQESVTEQDSKDSTYSLSSTLTLSKADYEKHKVYACEVTHQGLSSPVTKSFNRGEC
136 relative binding activity, GpH7-A5/GpH7-B3/GpL16-k0 = 100 | 193 relative binding activity, GpH7-A5/GpH7-B3/GpL16-k0 = 100 | 0.7 | – | – | – | – | – | – | GpH7-A5/GpH7-B3 variant L328_15Y/GpL16-k0 (heterodimerized antibody He Ab, L328Y in one H chain) (antibody, human IgG1, kappa, Anti-glypican-3 human IgG1-type antibody; the alteration is in only one of the two H chains (the GpH7-B3 chain)) heavy 1: not shown heavy 2: not shown light: DIVMTQSPLSLPVTPGEPASISCQASESLVHSNRNTYLHWYLQKPGQSPQLLIYKVSNRFSGVPDRFSGSGSGTDFTLKISRVEAEDVGVYYCSQNTHVPPTFGQGTKVEIERTVAAPSVFIFPPSDEQLKSGTASVVCLLNNFYPREAKVQWKVDNALQSGNSQESVTEQDSKDSTYSLSSTLTLSKADYEKHKVYACEVTHQGLSSPVTKSFNRGEC
